# Tested on: K4 kissing-loop RNA reporter
# Test: apparent KD of K4 kissing-loop reporter; higher = weaker reporter binding
# Settings: Eterna round: R107
# Protocol: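 RNA-MaP round R107: designed RNA switches with theophylline, tryptophan, arginine or FMN aptamers are transcribed on-chip within common flanks. They are titrated with a labelled K4 kissing-loop RNA reporter in RNA-MaP buffer (100 mM Tris pH 7.5, 80 mM KCl, 4 mM MgCl2), without ligand or with the indicated ligand. Median apparent KD per design.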
# [1] = input ligand: theophylline 20 uM
# [2] = input ligand: tryptophan 2.4 mM
# 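Also: bound reporter read as fluorescence of individual clusters on recovered sequencing chips by microscopy, with normalized cluster intensities fitted with a binding model.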
Sequence,apparent KD of K4 kissing-loop reporter (input ligand: FMN 200 uM) [nM],apparent KD of K4 kissing-loop reporter (input ligand: arginine 13.2 mM) [nM],apparent KD of K4 kissing-loop reporter (input ligand: none) [nM],apparent KD of K4 kissing-loop reporter [1] [nM],apparent KD of K4 kissing-loop reporter [2] [nM]
UGAUAGGACAGAAGGAGCGGUAGUGAUGUUACCAAAAGAAUAAGGUGUCAAAAGACACCCUGCCAGGUAGGUCGCUGUCCUAUCU,97.4,111,90.9,123,86
CCACAAUAUGGAAGGAGCGCCAGUGAUGUUGGUGCUUGCUUUAGGUAAGACCGGCCUAUUUGGCAGGUAGGUCGCCAUAUUCAAC [Ageat],103,89.5,97.7,89,97.2
AAGCAGUCACCCGAAGCCAUCGAAGAUGGACGAGGACCGGUACGGCCGCCACUCGGAGUGAUGUUCCGAAGACUGCAAAAUAAAA,269,272,302,304,412
UCGCAUUAACCGGAUACCAGCUUAGUGGGAUCUUCAAUCCGACAGAAAGUGAUGUUUUCUAGCCCUUGGCAGCCGAGAUUAUCAC [theeternabot_sameState_KL_Theo_B_50],231,333,331,412,348
AUGUUGAGCGGAAGGAGCGGCUGAACCAGUGAUGUUGGUUAAUCCAAGUGAUGUUGGAAAAGCCAGGUAGGUCGCCGCUUUAUGU [Same State Arg B GF 2],821,534,902,896,722
GGAUAGGACAGAGGAUAUGGUAGUGAUGUUACCAAACUGGUUACUCUUGUCAGAAAACUGGCAUCUCCAGAAGGCUGUCCUAUCG [KL-XFMN-B10],594,109,123,135,127
UCCUCGAAUCGACCUCGAAAGAGGAUGGAUACCAGAGAAGAAAUUCUCCCUUGGCAGCCAGUGAUGUUGGAACGAGGUAAAUAAA [#SwitchBubble 20 #K4Late],508,412,517,327,424
UGUCAUUGGUCUGAUACCAGAAGAUAAUCUGGAGUGAUGUUCCAAGUACGACAAAGUCGCUUCCCUUGGCAGCAGACCGAUGACU [TheoBS 19 #SwitchBubble 13 #StaticStem],1040,759,1110,619,886
UGUAUGUGAUUUGAUACCAGACCAGCUGGUGGUGUAUGAGUGAUGUUCAUGCUGGUUUGGGUCCCUUGGCAGCAAAUCGCAUACU [KL-SSTheoB29],10.6,6.48,8.46,7.6,8.89
AGACUACCACACUGUCAAUAGACAGUGAAUUAGGAUAUGCUGAUAAGCAGAAGGAGUGAUGUUCCCAGGUAGUCAAUAAAAUAAU [FmnAX 13 U30+C66],169,124,167,202,177
UCUCCAAAGUCGGCCGCCACUCCGGGCCCUAUAAAUGGGCGCAGUGAUGUUGCGGCUAGGCCUCUGAGGACCGGGACUUUGUAGA [Estiorquin],75.5,55.7,31.3,129,164
UUACCAAGUGAUGUUUGGAAAUAUCCUAGGCAGGAUAUGCGGAAACGCAGAAGGGCCACCUUCUAGUGAAGGAAACUUCGCUAUU [Ex FMN A 3],288,199,272,246,263
CUUGGCAUGCGCGAUACCAGCGAACAUAGCAAGCUACGGGUAGUGAUGUUAUCUGAAUAACGCCCUUGGCAGCGCACAUGCCGGC [clock],872,418,593,679,712
UGAUAGGACAGAAGGAGCGGUAGUGAUGUUGCCAAAAGGAUAAGGUGUCAAAAGACACCCUGCCAGGUAGGUCGCUGUCCUAUCU,126,136,123,110,99.8
AGGUACAAAAGUACCGCUAGAUCCACGGAAGGAGCGCGCGAAAGCGCAGGUAGGUCGCCGGGCAGUGAUGUUGCCGGAUCUAGCA [Omei KL Arginine A SS A v7],134,138,126,165,144
GUAGGAUGAGGAGGAGGAUGAAUUACUGAAGGAGCGCAAAGAAAUGCAGGUAGGUCGCGGUAAAGAAGUAUAGUGAUGUUAUAUA [SSArgA.E],400,301,413,426,310
AAUAUAUAGUGAAGGAGCGCGAUAAGCAGUGAUGUUGCUUAGUUAUUAGUGUUUAUUUUUACGCAGGUAGGUCGCACUAUAUAUA [JR_ExcArginiB_Sub017],115,105,114,101,114
AGUAAUGAGUGAUGUUCAAGUAGUAAGGAUACCAGUAAUUCAAAAUGCCCUUGGCAGCUUAGCGCUACCAAUAGAUGGGUAGUGG [Theophilline A V3 (+6G)],243,250,286,297,160
AAGUGGGAACGGCCCAAUAAAGUGUUUGUCAAGGAUAUUAUUCACAUAAGAAGGUGACAGACCACCUCCGGAGUGAUGUUUUGGA [theeternabot_sameState_KL_FMN_A_42],581,443,719,508,539
AAAAUAAACCAGUGAUGUUGGUAUCCAGAUACCAGCGACGAAAGUCGCCCUUGGCAGCUGUGGACGUACAAAAUAAGUACGUCCU,930,619,894,746,714
CGAUACGGAAAUACGUGUCUCUAUUCAGAAGGAGCGUGGUAGUACACAGGUAGGUCGCUGAAUUUUAAACUAGUGAUGUUAGUCU [JR_SSArginiA_Sub005],317,281,331,292,259
GGUUUAUAAGAGGAUACCAGUACAAAUAAAGUACAUUAAUAGUAGAGUGAUGUUCUAAAGUACCCUUGGCAGCUUAGAUUAAGUU [ExTheophylB.F],114,226,151,217,85.4
